Data on one substance can be found in article PMC12884772, “Macrophagic Sclerostin Loop2‐ApoER2 Interaction Required by Sclerostin for Cardiovascular Protective Action” (Advanced Science, 2025).

Where two headings read alike, the source gives them in different places.

The target of this assay is T1, ApoER2 (Homo sapiens, UniProt Q14114).
T1 construct: purchased R&D 3520‐AR
T1 sequence (Q14114 33-963): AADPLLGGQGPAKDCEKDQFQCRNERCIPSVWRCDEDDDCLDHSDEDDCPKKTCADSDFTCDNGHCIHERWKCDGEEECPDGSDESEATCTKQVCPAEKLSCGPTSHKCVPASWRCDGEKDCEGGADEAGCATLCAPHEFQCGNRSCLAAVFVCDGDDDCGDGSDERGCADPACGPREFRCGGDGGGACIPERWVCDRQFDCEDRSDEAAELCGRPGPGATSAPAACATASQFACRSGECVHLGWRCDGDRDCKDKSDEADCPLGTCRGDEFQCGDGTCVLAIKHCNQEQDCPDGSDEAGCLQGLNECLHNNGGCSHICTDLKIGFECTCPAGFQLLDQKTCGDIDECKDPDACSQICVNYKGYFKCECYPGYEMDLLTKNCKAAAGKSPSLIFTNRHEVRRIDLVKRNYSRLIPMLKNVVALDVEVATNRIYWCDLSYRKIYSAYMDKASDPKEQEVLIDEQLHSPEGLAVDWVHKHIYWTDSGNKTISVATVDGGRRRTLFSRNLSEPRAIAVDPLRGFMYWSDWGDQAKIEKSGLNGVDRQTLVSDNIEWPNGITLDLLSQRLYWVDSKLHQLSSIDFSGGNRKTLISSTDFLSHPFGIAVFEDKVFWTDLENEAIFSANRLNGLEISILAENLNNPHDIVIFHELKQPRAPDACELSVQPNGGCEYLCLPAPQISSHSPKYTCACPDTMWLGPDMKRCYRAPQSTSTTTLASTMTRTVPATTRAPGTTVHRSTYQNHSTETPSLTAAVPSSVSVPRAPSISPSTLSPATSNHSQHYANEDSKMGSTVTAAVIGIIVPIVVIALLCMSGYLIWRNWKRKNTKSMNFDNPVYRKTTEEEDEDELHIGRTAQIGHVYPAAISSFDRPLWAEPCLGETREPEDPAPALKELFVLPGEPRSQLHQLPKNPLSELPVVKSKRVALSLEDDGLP
Description: Biolayer interferometry (BLI) binding of ApoER2 and sclerostin / sclerostin loop2. As to the method: The interaction of full‐length (FL)/truncated ApoER2 with full‐length (FL) /truncated sclerostin in macrophages (RAW264.7) were determined by pull‐down assay and Co‐IP assay. The binding affinity of ApoER2 to FL sclerostin and sclerostin loop2 were determined by biolayer interferometry (BLI) analysis. Moreover, the binding of sclerostin to ApoER2 on macrophages (RAW264.7) was examined by confocal microscopy.
Biolayer interferometry (BLI) analysis was performed on the Biomolecular Interaction Analyzer (ForteBio, Octet RED96e). To determine the binding affinity between ApoER2 and sclerostin, the ApoER2 protein (R&D, 3520‐AR) was biotinylated using 10 mM EZ‐Link Sulfo‐NHS‐LC‐LC‐Biotin (Thermo Scientific, 21 343) in a molar ratio of 1:20 for 2 h at 4 °C. The Slide‐A‐Lyzer Dialysis Cassettes (Thermo Scientific, 66 382) were used for excess biotin removal.^[ [61] ^] […] (SA) tray biosensors (Sartorius, 18‐5019) were used to load biotin‐ApoER2 proteins. Biosensors were pre‐wet for 10 min using 200 µL PBS containing 0.02% Tween 20 (v/v) in a 96‐well plate. […] Raw data were analyzed using Data Analysis Software (ForteBio, v8.1). All Kd values were calculated after deducting the non‐specific binding between the biosensors and the samples.^[ [62], [63] ^]

A word on the Kd: it is the concentration at which binding is half-saturated. For “sclerostin: recombinant human/mouse full‐length sclerostin protein”, the equilibrium dissociation constant (Kd) reads like this: (Figure S6B, Sclerostin – ApoER2, read-out: Kd, binding of sclerostin to ApoER2) 2.1 nM; (Octet RED96e, biotin‐ApoER2 on streptavidin biosensors or His‐ApoER2 on HIS1K biosensors, non‐specific binding deducted, Figure 6B, read-out: Kd, binding of ApoER2 to sclerostin or sclerostin loop2) 3.8 nM.
